Experimental data: US20100167342

System: GlyExendin-4 (Glycine-extended Exendin-4, Exendin-4 precursor with C-terminal glycine)

Pichia pastoris homolog of Saccharomyces cerevisiae STE13 dipeptidyl peptidase
N-terminal clipping of GlyExendin-4 (HPLC and LCMS of peptide expressed in STE13-disrupted clone D2): the expressed GlyExendin-4 when checked by HPLC and LCMS was not N-terminally clipped

Pichia pastoris homolog of Saccharomyces cerevisiae dipeptidyl peptidase DAP2
(N-2) impurity of GlyExendin-4 (HPLC of peptide expressed in DAP2-disrupted Pichia clone): This continued to show (N-2) impurity
